Test results taken from patent publication US20210032365A1 (Chugai, published 2021).
Positions count from the first letter of the chain named.

B1: C1_IPN92H0033-SG4GK/IPN93L0021-SK1 (antibody, human IgG4 S228P, kappa, name in Kabat numbering, V domains shown)
VH: EVMLVESGGGLVKPGGSLRLSCAASGFTFSNYAMSWVRQAPGKGLEWVATISSGGSHTYYLDSVKGRFTISRDNSKDTLYLQMNSLRAEDTALYYCARLFTGHAMDYWGQGTLVTVSS
VL: QIVLTQSPATLSLSPGERATLSCTASSSVSSSYLHWYQQKPGKAPKLWIYSTSNLASGVPSRFSGSGSGTDYTLTISSLQPEDFATYYCHQYHRLPPITFGQGTKLEIKR
notes: also called IPN92H0033/IPN93L0021
B2: C1_IPN92H0038-SG4GK/IPN93L0021-SK1 (antibody, human IgG4 S228P, kappa, name in Kabat numbering, V domains shown)
VH: B1 VH with G66H
VL: B1 VL
notes: also called IPN92H0038/IPN93L0021
B3: C1_IPN92H0033-SG4GK/IPN93L0030-SK1 (antibody, human IgG4 S228P, kappa, name in Kabat numbering, V domains shown)
VH: B1 VH
VL: B1 VL with H93Y, L95H, P96H
notes: also called IPN92H0033/IPN93L0030
B4: C1_IPN92H0033-SG4GK/IPN93L0023-SK1 (antibody, human IgG4 S228P, kappa, name in Kabat numbering, V domains shown)
VH: B1 VH
VL: B1 VL with H93Y, L95H
notes: also called IPN92H0033/IPN93L0023
B5: C1_IPN92H0038-SG4GK/IPN009VK3-SK1 (antibody, human IgG4 S228P, kappa, name in Kabat numbering, V domains shown)
VH: B1 VH with G66H
VL: B1 VL with H93Y
notes: also called IPN92H0038/IPN009VK3
B6: C1_IPN92H0038-SG4GK/IPN93L0028-SK1 (antibody, human IgG4 S228P, kappa, name in Kabat numbering, V domains shown)
VH: B1 VH with G66H
VL: B1 VL with L95H
notes: also called IPN92H0038/IPN93L0028
B7: C1_IPN92H0033-SG4GK/IPN93L0028-SK1 (antibody, human IgG4 S228P, kappa, name in Kabat numbering, V domains shown)
VH: B1 VH
VL: B1 VL with L95H
notes: also called IPN92H0033/IPN93L0028
B8: C1_IPN92H0038-SG4GK/IPN93L0024-SK1 (antibody, human IgG4 S228P, kappa, name in Kabat numbering)
heavy: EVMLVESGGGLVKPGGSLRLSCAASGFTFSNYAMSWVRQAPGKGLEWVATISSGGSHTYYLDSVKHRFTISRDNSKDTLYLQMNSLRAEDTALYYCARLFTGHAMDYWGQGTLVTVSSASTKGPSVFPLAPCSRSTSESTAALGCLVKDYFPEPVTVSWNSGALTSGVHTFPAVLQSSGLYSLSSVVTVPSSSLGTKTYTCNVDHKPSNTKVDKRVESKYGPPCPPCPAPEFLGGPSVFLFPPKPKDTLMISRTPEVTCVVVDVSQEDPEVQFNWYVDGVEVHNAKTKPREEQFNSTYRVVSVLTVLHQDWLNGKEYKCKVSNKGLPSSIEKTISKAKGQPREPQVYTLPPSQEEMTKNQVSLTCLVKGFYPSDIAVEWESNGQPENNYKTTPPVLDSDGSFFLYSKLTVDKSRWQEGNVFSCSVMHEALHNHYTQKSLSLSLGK
light: QIVLTQSPATLSLSPGERATLSCTASSSVSSSYLHWYQQKPGKAPKLWIYSTSNLASGVPSRFSGSGSGTDYTLTISSLQPEDFATYYCHQYYRLHPITFGQGTKLEIKRTVAAPSVFIFPPSDEQLKSGTASVVCLLNNFYPREAKVQWKVDNALQSGNSQESVTEQDSKDSTYSLSSTLTLSKADYEKHKVYACEVTHQGLSSPVTKSFNRGEC
notes: also called IPN92H0038/IPN93L0024
B9: C1_IPN92H0038-SG4GK/IPN93L0023-SK1 (antibody, human IgG4 S228P, kappa, name in Kabat numbering, V domains shown)
VH: B1 VH with G66H
VL: B1 VL with H93Y, L95H
notes: also called IPN92H0038/IPN93L0023
B10: C1_IPN92H0033-SG4GK/IPN93L0031-SK1 (antibody, human IgG4 S228P, kappa, name in Kabat numbering, V domains shown)
VH: B1 VH
VL: B1 VL with L95H, P96H
notes: also called IPN92H0033/IPN93L0031
B11: C1_IPN92H0033-SG4GK/IPN93L0029-SK1 (antibody, human IgG4 S228P, kappa, name in Kabat numbering, V domains shown)
VH: B1 VH
VL: B1 VL with P96H
notes: also called IPN92H0033/IPN93L0029

Key:
[1] = molecular target: T1, human C1s (human, UniProt P09871 16-688); assay: SPR, Ab captured; pH 5.8, 1.2 mM Ca
T1 construct: also called hC1s; serum-derived human C1s (CompTech)
T1 sequence: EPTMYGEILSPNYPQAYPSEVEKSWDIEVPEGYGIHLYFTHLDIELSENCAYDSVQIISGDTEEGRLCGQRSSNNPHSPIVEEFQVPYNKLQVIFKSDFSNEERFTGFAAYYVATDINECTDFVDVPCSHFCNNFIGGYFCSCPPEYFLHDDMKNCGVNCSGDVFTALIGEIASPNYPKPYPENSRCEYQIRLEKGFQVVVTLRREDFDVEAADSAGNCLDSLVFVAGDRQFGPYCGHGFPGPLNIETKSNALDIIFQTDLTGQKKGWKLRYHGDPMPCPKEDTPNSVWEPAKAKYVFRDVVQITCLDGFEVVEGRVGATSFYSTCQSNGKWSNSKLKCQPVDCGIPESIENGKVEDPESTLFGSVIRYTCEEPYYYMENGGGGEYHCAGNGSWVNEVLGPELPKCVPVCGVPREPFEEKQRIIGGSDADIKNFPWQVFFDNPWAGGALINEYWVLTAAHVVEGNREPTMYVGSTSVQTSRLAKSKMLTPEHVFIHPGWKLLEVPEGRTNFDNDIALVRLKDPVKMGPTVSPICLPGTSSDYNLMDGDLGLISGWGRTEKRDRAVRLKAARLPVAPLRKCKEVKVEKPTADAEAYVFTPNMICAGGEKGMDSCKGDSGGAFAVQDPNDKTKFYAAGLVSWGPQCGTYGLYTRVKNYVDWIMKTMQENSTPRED
Experimental: (§1) All variants were transiently expressed and purified by the method described above. The binding affinity of each histidine-substituted variant at pH 7.4 and pH 5.8 was determined at 37 degrees C. using Biacore T200 instrument (GE Healthcare). Recombinant Protein A/G (Pierce) was immobilized onto all flow cells of a CM4 sensor chip using an amine coupling kit (GE Healthcare). Antibodies and analytes were prepared in 7(+) buffer (20 mM ACES, 150 mM NaCl, 1.2 mM CaCl2, 0.05% Tween 20, 0.005% NaN3, pH 7.4), 5(+) buffer (20 mM ACES, 150 mM NaCl, 1.2 mM CaCl2, 0.05% Tween 20, 0.005% NaN3, pH 5.8), or 5(−) buffer (20 mM ACES, 150 mM NaCl, 3 micro M CaCl2, 0.05% Tween 20, 0.005% NaN3, pH 5.8). Each antibody was captured onto the sensor surface by protein A/G. Antibody capture levels were aimed at 200 resonance unit (RU). Serum-derived human C1s (CompTech) or recombinant C1s prepared in EXAMPLE 1 was injected at 50 nM, followed by dissociation. The sensor surface was regenerated in each cycle with 10 mM Glycine-HCl, pH 1.5. […] The ratio of KD 5.8+ to KD 7.4+(“KD 5+/7+”) and that of KD 5.8− to KD 7.4+(“KD 5−/7+”) were calculated. When the KD 5+/7+ or KD 5−/7+ of a variant is larger than that of the parent antibody IPN009VH2-SG4GK/IPN009VK3-SK1, that variant is considered to be “pH”- or “pH and Ca”-dependent, respectively. When binding response in 5(+) buffer and/or in 5(−) buffer of a variant is much lower than that of IPN09VH2/IPN009VK3, that variant is also considered as “pH”- and/or “pH and Ca”-dependent. Therefore, such mutations are effective to generate “pH”- and/or “pH and Ca”-dependent antibody. To further enhance “pH” and/or “pH and Ca” dependency, a combination of histidine mutations was conducted. Antibodies with combinations of histidine mutations were evaluated using Biacore by the method described above.

[2] = molecular target: T1, human C1s; assay: SPR, Ab captured; pH 7.4, 1.2 mM Ca
Experimental: as §1

[3] = molecular target: T1, human C1s; assay: SPR; KD pH 5.8 3 uM Ca / KD pH 7.4 1.2 mM Ca
Experimental: as §1

[4] = molecular target: T1, human C1s; assay: SPR; KD pH 5.8 1.2 mM Ca / KD pH 7.4 1.2 mM Ca
Experimental: as §1

[5] = molecular target: T1, human C1s; assay: SPR, Ab captured; pH 5.8, 3 uM Ca
Experimental: as §1

Row | Binder | Kd [1] | koff [1] | kon [1] | Kd [2] | koff [2] | kon [2] | KD 5(-)/7(+) [3] | KD 5(+)/7(+) [4] | Kd [5] | koff [5] | kon [5]
1 | B1 | 5.01 nM | 0.00293 s⁻¹ | 585000 M⁻¹ s⁻¹ | 1.92 nM | 0.000672 s⁻¹ | 350000 M⁻¹ s⁻¹ | 4 | 2.6 | 7.59 nM |  | 
2 | B2 | 3.53 nM | 0.00224 s⁻¹ | 634000 M⁻¹ s⁻¹ | 0.958 nM | 0.000477 s⁻¹ | 498000 M⁻¹ s⁻¹ | 10.6 | 3.7 | 10.2 nM |  | 
3 | B3 | 89.3 nM | 0.0449 s⁻¹ | 503000 M⁻¹ s⁻¹ | 24.2 nM | 0.0146 s⁻¹ | 603000 M⁻¹ s⁻¹ | 106 | 3.7 | 2560 nM | 0.0603 s⁻¹ | 23500 M⁻¹ s⁻¹
4 | B4 | 5.05 nM | 0.00282 s⁻¹ | 559000 M⁻¹ s⁻¹ | 3.25 nM | 0.000978 s⁻¹ | 301000 M⁻¹ s⁻¹ | 3.5 | 1.6 | 11.3 nM |  | 
5 | B5 | 0.668 nM | 0.000463 s⁻¹ | 693000 M⁻¹ s⁻¹ | 0.679 nM | 0.000282 s⁻¹ | 415000 M⁻¹ s⁻¹ | 12.3 | 1 | 8.33 nM | 0.00538 s⁻¹ | 646000 M⁻¹ s⁻¹
6 | B6 | 17.7 nM | 0.00789 s⁻¹ | 445000 M⁻¹ s⁻¹ | 2.36 nM | 0.00125 s⁻¹ | 528000 M⁻¹ s⁻¹ | 11.6 | 7.5 | 27.3 nM | 0.0174 s⁻¹ | 637000 M⁻¹ s⁻¹
7 | B7 | 20.1 nM | 0.0144 s⁻¹ | 717000 M⁻¹ s⁻¹ | 6.5 nM | 0.00218 s⁻¹ | 335000 M⁻¹ s⁻¹ | 1.3 | 3.1 | 8.5 nM | 0.0056 s⁻¹ | 658000 M⁻¹ s⁻¹
8 | B8 | 8.19 nM | 0.00418 s⁻¹ | 511000 M⁻¹ s⁻¹ | 1.57 nM | 0.000596 s⁻¹ | 380000 M⁻¹ s⁻¹ | 3.5 | 5.2 | 5.47 nM |  | 
9 | B9 | 5.33 nM | 0.00279 s⁻¹ | 524000 M⁻¹ s⁻¹ | 1.91 nM | 0.000808 s⁻¹ | 422000 M⁻¹ s⁻¹ | 6.3 | 2.8 | 12.1 nM |  | 
10 | B10 |  | 0.00209 s⁻¹ | 807000 M⁻¹ s⁻¹ |  | 0.00187 s⁻¹ | 522000 M⁻¹ s⁻¹ | 3.9 | 0.7 |  | 0.00934 s⁻¹ | 674000 M⁻¹ s⁻¹
11 | B11 | 24.6 nM | 0.0222 s⁻¹ | 905000 M⁻¹ s⁻¹ | 15.4 nM | 0.0074 s⁻¹ | 479000 M⁻¹ s⁻¹ | 0.6 | 1.6 | 9.79 nM | 0.00376 s⁻¹ | 384000 M⁻¹ s⁻¹
